# Results reported in the supplement of paper PMC10724198.
# ± gives the standard deviation of the averaged measurements.
# System: Saccharomyces cerevisiae
# Test: protein stability index of tFT-peptide fusion (C-terminal peptide) (PSI (0-1 scale)); higher = more stable (slower turnover)
# Details: genetic background: wild type; temperature: 30 C
# 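Also: PSI is a weighted mean of sequencing reads over stability bins, variants kept only with over 10 reads, mCherry proximal and sfGFP distal, peptide attached via GGGS linker.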
row,Sequence,protein stability index
1,SLPVSSPIRILF,0.6326 ± 0.0015
2,APPPPLLPHPTP,0.736 ± 0.028
3,ETVFESFEVKCG,0.68 ± 0.022
4,PPPPRSPVCLPL,0.792 ± 0.011
5,KKKKQRKQEKKI,0.642 ± 0.008
6,PVLFSPPSPFFP,0.708 ± 0.083
7,NKARVDCNRSRC,0.781 ± 0.2
8,SLVCCGPVWVFL,0.573 ± 0.022
9,SLPRSHRRGPVP,0.663 ± 0.014
10,LMLFCLGCDMSV,0.576 ± 0.027
11,KTVVYDDRKQLR,0.674 ± 0.0096
12,AGSAGKWCWCGG,0.711 ± 0.039
13,VPFDFFVYFFEF,0.5861 ± 0.0018
14,LPPPHPPTPAPP,0.621 ± 0.075
15,SCHEARWEVVMW,0.771 ± 0.17
16,LFSRSSHGRFLT,0.624 ± 0.041
17,IPFPSSARLRAD,0.708 ± 0.02
18,PLSPPPYPPRPL,0.721 ± 0.024
19,NSESVRLGLGNE,0.705 ± 0.054
20,RLMKQKKMKRRK,0.724 ± 0.025
21,PGATSAIPPPFT,0.738 ± 0.03
22,ENKKKKKNIEKK,0.702 ± 0.04
23,CPFPSPTPPPPC,0.726 ± 0.095
24,SRKTDTRLTMIN,0.692 ± 0.032
25,GGGARSPSGCAN,0.712 ± 0.019
26,SHLFPCRSSFPP,0.656 ± 0.037

row,Sequence,protein stability index
1,ASRIGHIGQPVI,0.6889 ± 0.00017
2,VSYEGIVKDGSG,0.647 ± 0.083
3,AWGSVVTFLGLR,0.737 ± 0.054
4,FFVVAPSPSPRL,0.761 ± 0.0073
5,GSVFVFWESWRC,0.6803 ± 0.0029
6,LPPAFRIPHTWY,0.71 ± 0.0071
7,PRPGSTTPPAYR,0.7163 ± 0.0053
8,GGMWGVGRGSVG,0.657 ± 0.068
9,MRAIRPGHSDLV,0.629 ± 0.043
10,QCLSIDARNGVT,0.668 ± 0.095
11,RRRSAFRLIKEK,0.677 ± 0.045
12,KTKKRKTKKKTK,0.723 ± 0.036
13,AGLGGGARQGAL,0.672 ± 0.024
14,VSRACYTPPQFY,0.68 ± 0.13
15,VGFSVLGGRAGW,0.712 ± 0.044
16,TRRKKKKNTGTK,0.71 ± 0.022
17,PLRTLFGDHLLV,0.6826 ± 0.002
18,DGGAGGLGLLGG,0.651 ± 0.0081
19,PPSLPPHASPTP,0.762 ± 0.079
20,PLPIPHASPTLA,0.641 ± 0.025
21,TSFLRSPPPPRL,0.763 ± 0.012
22,KGKKTTKTDAKK,0.612 ± 0.061
23,CPSPPPIPLTLS,0.6221 ± 0.001
24,PSPPCPPTDPPA,0.624 ± 0.011
25,VSGFEGCYFSDL,0.712 ± 0.039
26,PRTAAFDSLLPT,0.688 ± 0.036

row,Sequence,protein stability index
1,PPPPPPCSPATS,0.747 ± 0.14
2,SLSVPTTLFLFS,0.7 ± 0.017
3,LPQTVPPPPSPP,0.624 ± 0.06
4,YTPDFPTIVSFI,0.694 ± 0.14
5,WRGIFPSRFCLS,0.62 ± 0.039
6,LLLPNPTPPPPP,0.625 ± 0.0012
7,GSLHPAPDLRTR,0.709 ± 0.036
8,MSGPHGGVADRD,0.676 ± 0.054
9,VGSPPVWAAVWG,0.614 ± 0.12
10,VIMNPGNDFLQK,0.702 ± 0.011
11,CLRPGAPESSIP,0.673 ± 0.1
12,AGVLTRGNCCGG,0.6885 ± 0.005
13,LHLGRLVHGGVD,0.673 ± 0.017
14,GGGRGEVEGHSG,0.709 ± 0.013
15,GRTENKKPSIKL,0.711 ± 0.058
16,AHSPPTRISPTH,0.75 ± 0.097
17,RNQTRKTTQKPR,0.661 ± 0.01
18,IGISIRTAQGEL,0.674 ± 0.02
19,WGRRCRFIFRGM,0.654 ± 0.074
20,SFRYVGLTRVFG,0.592 ± 0.032
21,SFVSDYIILIVL,0.497 ± 0.081
22,KNKQSKNKSKRK,0.712 ± 0.038
23,VRHYSSNFAPFI,0.676 ± 0.025
24,DLLTRAYPWPAE,0.692 ± 0.024
25,GWGMVLYRNMML,0.6039 ± 0.0046
26,GRRRARPISRGT,0.681 ± 0.047

row,Sequence,protein stability index
1,ITTNTESSRQSY,0.702 ± 0.014
2,MILNLLLFRSKK,0.67 ± 0.05
3,LVFLGLCGTDFV,0.676 ± 0.12
4,DLRHLLVPVPRI,0.7066 ± 0.0022
5,KDNAPTLPQGGN,0.662 ± 0.06
6,RGGWGGYRGGVP,0.757 ± 0.021
7,TKKKKKKNKKQE,0.683 ± 0.012
8,GVWGGGGGWGVA,0.688 ± 0.0096
9,VGIRTFFRFRMR,0.6692 ± 0.0014
10,GLKNECAIDGVL,0.623 ± 0.045
11,TGTEKFTMQFKF,0.673 ± 0.042
12,SIRLGGSVVELV,0.694 ± 0.041
13,TGTVYGGTRRGQ,0.698 ± 0.075
14,PAGVPPAVCRDL,0.609 ± 0.0092
15,PPSPPILPPRPP,0.687 ± 0.015
16,LPPPSPPPPPSP,0.68 ± 0.028
17,SGSRWYYSLGRG,0.709 ± 0.043
18,GGGVWGGVFFRL,0.647 ± 0.014
19,IFKAIDQTYTDK,0.758 ± 0.15
20,LPLPPLLPPPSP,0.68 ± 0.073
21,LGLSCTIFPIGI,0.679 ± 0.018
22,VGVSLVLPDWDV,0.693 ± 0.053
23,IESKANPRRIEV,0.696 ± 0.027
24,GNTGRLERLKRQ,0.734 ± 0.072
25,PHPSAAPPPNPP,0.759 ± 0.062
26,SGGVKGKKKGEK,0.702 ± 0.043

row,Sequence,protein stability index
1,APSPPPDPATPR,0.672 ± 0.026
2,SVALGRQGTPNI,0.6506 ± 0.0064
3,SPNAPMPPRPRH,0.594 ± 0.033
4,MPVWGGSASRAL,0.713 ± 0.066
5,TLCTKCNVFSCC,0.682 ± 0.062
6,PSLLSMHSFSLC,0.68 ± 0.014
7,SKKKRQNQLIKM,0.7527 ± 0.0032
8,LRAPRGEFHWFL,0.684 ± 0.11
9,FRRWHPPFFLFP,0.713 ± 0.04
10,GGKREGEACRQE,0.662 ± 0.13
11,RNYEGTKIEEQE,0.7219 ± 0.0047
12,LKRDLGGTSTRG,0.6615 ± 0.0057
13,KKERTGTKKKKK,0.698 ± 0.048
14,RKGEASRVRWSE,0.668 ± 0.061
15,PSPTPSPPFPAP,0.721 ± 0.038
16,FCCVAPLALPRM,0.686 ± 0.013
17,GFVVGVGIVSWG,0.6108 ± 0.0029
18,GPRIVVLKDVII,0.6403 ± 0.0063
19,AQRKSVLSPDLC,0.67 ± 0.035
20,KDGAGGDWDVGE,0.6948 ± 0.006
21,NTNEKKRQRKKK,0.6389 ± 0.0037
22,SYLMVATRFGEN,0.741 ± 0.067
23,CGAGGARGSVAR,0.693 ± 0.026
24,PLHNPPTRRTTP,0.67 ± 0.056
25,GWLASPHFPYAY,0.6883 ± 0.001
26,PHPPHPPPPPPS,0.689 ± 0.036

row,Sequence,protein stability index
1,FVEIRGGGDRRM,0.706 ± 0.013
2,AAQRGSTMARGG,0.704 ± 0.064
3,YPGVSRCGTRWV,0.643 ± 0.046
4,PPCAPPPSPLAC,0.684 ± 0.043
5,LFLCSGWVACWW,0.498 ± 0.013
6,QRRRQEKRKKQD,0.654 ± 0.077
7,PPGSPPSLPPLP,0.711 ± 0.057
8,SLPQAPLRPAPS,0.656 ± 0.046
9,GWSRCVFGGYRL,0.7 ± 0.022
10,GGGGVLGVVRVG,0.62 ± 0.033
11,IGGAPRIETIYP,0.704 ± 0.074
12,TSKTLHKTNNIK,0.698 ± 0.028
13,IIGPFDSYVYGL,0.7 ± 0.0071
14,AGGGWAVQVGMG,0.684 ± 0.042
15,PQPLNTLRLTSS,0.671 ± 0.034
16,PFSAPRRLPRTV,0.697 ± 0.0089
17,LRIGVEAGRAHR,0.648 ± 0.033
18,VINKHYINKCQG,0.638 ± 0.088
19,FVGFVFSSAVGL,0.684 ± 0.011
20,RWSPLLPPQVSL,0.683 ± 0.019
21,GGALNGVGNGEL,0.67 ± 0.053
22,NKKKKHKNSKNN,0.704 ± 0.055
23,WVCARQVGIGWG,0.6657 ± 0.0019
24,RAMGDRSIRLDV,0.679 ± 0.02
25,KAAQREVDLLVT,0.668 ± 0.021
26,MYLLSFRALGSS,0.54 ± 0.0098

row,Sequence,protein stability index
1,PSHQRVRGLPSL,0.697 ± 0.041
2,PDGGPGLLRFVL,0.64 ± 0.015
3,PPPLPAAHFSTP,0.663 ± 0.022
4,GVVGGGGEAWRE,0.794 ± 0.038
5,EKIRSARKKTIH,0.735 ± 0.0082
6,VKTSRASLSGKL,0.805 ± 0.12
7,LFRRPSVVFLFV,0.496 ± 0.062
8,LSFFYLLSSYFL,0.62 ± 0.019
9,GGGAADGGGGRG,0.646 ± 0.059
10,ALRMVRHCPVNT,0.667 ± 0.029
11,LGWWGVWSWGRG,0.655 ± 0.033
12,VTDTFKFYCERL,0.7274 ± 0.0051
13,LWWASRLRVPTP,0.674 ± 0.093
14,YMIPVPFSNLCL,0.66 ± 0.011
15,LPISASLLSFPL,0.716 ± 0.048
16,PIALPSPSSPIF,0.669 ± 0.015
17,LRPLKVSGGGRG,0.685 ± 0.045
18,LVRRTLWGSGCL,0.666 ± 0.013
19,VRQKTPREQRVY,0.701 ± 0.059
20,GGGGGGFRVVVG,0.705 ± 0.03
21,SWVDVGSWLGGV,0.7108 ± 0.0043
22,GAFFPGPVLFLT,0.517 ± 0.013
23,DGLGLLVGAGVG,0.623 ± 0.085
24,VGSLFGFGGRWV,0.645 ± 0.0082
25,LTGHVGNMWDAA,0.86 ± 0.025
26,IALLQRTSSTPD,0.748 ± 0.028

row,Sequence,protein stability index
1,LQHCSAPLLTNS,0.74 ± 0.085
2,PPALSSNPVIPG,0.626 ± 0.099
3,GCIPFELLECGF,0.663 ± 0.071
4,VPYLPPHLPLPP,0.71 ± 0.043
5,PPPLPPPPPTRP,0.616 ± 0.063
6,GVRGLLAGGGVW,0.709 ± 0.027
7,PFVGSSPFPLCL,0.645 ± 0.042
8,LLKGPDLLGRAS,0.721 ± 0.051
9,GLYSRPVNSNSF,0.762 ± 0.022
10,SSPRPPPPRFSP,0.687 ± 0.039
11,SLPPDPPSSYSP,0.632 ± 0.044
12,SFSRLYGCVPRD,0.678 ± 0.0098
13,PPSPAFSSSLPP,0.635 ± 0.025
14,PRYSVRGQPRET,0.728 ± 0.0061
15,IKSHHVIPNSCL,0.616 ± 0.058
16,LRGDGGLFGDSG,0.655 ± 0.035
17,GGVSGESAVVSV,0.649 ± 0.038
18,LLFRCGARSAGG,0.676 ± 0.022
19,CLGRDVENRDAW,0.785 ± 0.078
20,DSRSPSTTLIPL,0.6623 ± 0.0018
